Test results from patent publication US20110311523A1.

Molecular target: human platelet derived growth factor-α receptor (PDGFRα) (human) (UniProt P16234)
Assay: cell-based or functional assay

Chain of human platelet derived growth factor-α receptor (PDGFRα) (human) (P16234 24-1089): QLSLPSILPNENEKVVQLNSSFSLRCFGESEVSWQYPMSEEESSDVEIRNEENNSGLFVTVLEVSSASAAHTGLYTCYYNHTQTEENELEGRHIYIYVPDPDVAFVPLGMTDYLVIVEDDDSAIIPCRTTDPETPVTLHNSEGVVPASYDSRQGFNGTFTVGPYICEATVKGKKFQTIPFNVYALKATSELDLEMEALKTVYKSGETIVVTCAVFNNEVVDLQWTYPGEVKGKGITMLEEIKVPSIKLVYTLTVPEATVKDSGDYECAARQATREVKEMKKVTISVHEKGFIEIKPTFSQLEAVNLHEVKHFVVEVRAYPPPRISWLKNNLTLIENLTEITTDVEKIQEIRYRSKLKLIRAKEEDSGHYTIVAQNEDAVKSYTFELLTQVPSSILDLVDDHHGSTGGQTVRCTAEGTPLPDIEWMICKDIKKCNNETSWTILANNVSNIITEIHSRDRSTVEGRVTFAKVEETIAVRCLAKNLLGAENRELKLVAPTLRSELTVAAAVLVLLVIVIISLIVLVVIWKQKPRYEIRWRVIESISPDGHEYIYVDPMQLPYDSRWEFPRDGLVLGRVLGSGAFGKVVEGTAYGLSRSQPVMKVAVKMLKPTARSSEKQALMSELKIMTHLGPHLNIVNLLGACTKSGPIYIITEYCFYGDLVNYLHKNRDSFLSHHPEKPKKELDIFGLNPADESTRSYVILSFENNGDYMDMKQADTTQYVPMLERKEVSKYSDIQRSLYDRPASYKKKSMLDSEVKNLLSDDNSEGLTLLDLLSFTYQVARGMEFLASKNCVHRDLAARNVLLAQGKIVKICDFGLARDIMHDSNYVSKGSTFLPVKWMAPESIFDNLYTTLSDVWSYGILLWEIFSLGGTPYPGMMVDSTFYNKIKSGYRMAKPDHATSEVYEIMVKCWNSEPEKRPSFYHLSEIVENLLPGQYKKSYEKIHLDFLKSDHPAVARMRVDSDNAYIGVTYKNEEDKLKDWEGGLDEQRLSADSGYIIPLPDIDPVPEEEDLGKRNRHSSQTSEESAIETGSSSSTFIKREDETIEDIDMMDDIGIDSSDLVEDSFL

Substance | decrease in HCMV entry (pp65 positive cells) [%]
PDGF-AA (from UniProt P04085 87-211) (ligand) | 30
IMC-3G3, a humanized PDGFRα blocking antibody (ImClone Inc.) | 45
